± gives the standard deviation of the averaged measurements.
Experiments:
[1] = system: VchCAST RNA-guided transposition machinery (E. coli BL21(DE3) host, lacZ target); test: relative integration efficiency (T-RL orientation) vs wild-type transposon end (log2 (normalized fold change)); transposon end mutated: right end (5 bp flank + 75 bp right end); higher = more efficient transposition
How it was run: (§1)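 A T7-driven effector plasmid encoding a CRISPR array, tniQ-cas8-cas7-cas6 and tnsA-tnsB-tnsC was co-transformed into E. coli BL21(DE3) together with a pUC57 mini-transposon donor holding barcoded pools of 1549 left-end or 1849 right-end variants. Transformants were plated with 0.1 mM IPTG at 37°C for 18 h. Illumina sequencing of PCR-amplified input plasmids and genomic integration junctions gave barcode abundances, and relative integration efficiency is their output/input fold change, normalised to reference barcodes and log-transformed.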

[2] = system: VchCAST RNA-guided transposition machinery (E. coli BL21(DE3) host, lacZ target); test: relative integration efficiency (T-LR orientation) vs wild-type transposon end (log2 (normalized fold change)); transposon end mutated: right end (5 bp flank + 75 bp right end); higher = more efficient transposition
How it was run: as §1

Sequence	relative integration efficiency (log2) [1]	relative integration efficiency (log2) [2]
ACATTTGTTGATACAACCATAAAATGATAATTACACCCATAAATACTAAATTATCACACCCATAAATTGATATTGCCTCTGATCATAGTCAGACCAACATTGCTACGACCCGTATTCGCACCGACAC	-1.56 ± 0.23	-1.26 ± 0.24
ACATTTGTTGATACAACCATAAAATGATAATTACACCCATAAATCTGAAATTATCACACCCATAAATTGATATTGCCTCTGATCATAGTCAGACCAACATTGCTACGACCCGTATTCGCACCGACAC	-0.888 ± 0.057	-1.08 ± 0.29
ACATTTGTTGATACAACCATAAAATGATAATTACACCCATAAATGGATAATTATCACCCCCAATTTAACTATAACGCTCTGATCATAGTCAGACCAACATTGCTACGACCCGTATTCGCACCGACAC	-1.3 ± 0.18	1.64 ± 0.048
ACATTTGTTGATACAACCATAAAATGATAATTACACCCATAAATGGATCATTATCACACCCAATTTAACTATAACGCTCTGATCATAGTCAGACCAACATTGCTACGACCCGTATTCGCACCGACAC	-1.63 ± 0.33	1.07 ± 0.2
ACATTTGTTGATACAACCATAAAATGATAATTACACCCATAAATGGATCATTATCACCCCCAATTTAACTATAACGCTCTGATCATAGTCAGACCAACATTGCTACGACCCGTATTCGCACCGACAC	-1.44 ± 0.18	1.15 ± 0.28
ACATTTGTTGATACAACCATAAAATGATAATTACACCCATAAATGGATTATTATCACACCCAATTTAACTATAACGCTCTGATCATAGTCAGACCAACATTGCTACGACCCGTATTCGCACCGACAC	-1.59 ± 0.23	0.865 ± 0.44
ACATTTGTTGATACAACCATAAAATGATAATTACACCCATAAATGTATAATTATCACACCCATAAATTGATATTGCCTCTGATCATAGTCAGACCAACATTGCTACGACCCGTATTCGCACCGACAC	-0.553 ± 0.026	-1.04 ± 0.38
ACATTTGTTGATACAACCATAAAATGATAATTACACCCATAAATGTCGAATTATCACACCCATAAATTGATATTGCCTCTGATCATAGTCAGACCAACATTGCTACGACCCGTATTCGCACCGACAC	-1.83 ± 0.081	-2.54 ± 0.58
ACATTTGTTGATACAACCATAAAATGATAATTACACCCATAAATGTCGCCGGCGACACAAACGCCCGGTCGCGGTAAGAGGATCATAGTCAGACCAACATTGCTACGACCCGTATTCGCACCGACAC	-1.73 ± 0.3	1 ± 0.17
ACATTTGTTGATACAACCATAAAATGATAATTACACCCATAAATTCATAATTATCACCCCCAATTTAACTATAACGCTCTGATCATAGTCAGACCAACATTGCTACGACCCGTATTCGCACCGACAC	-1.95 ± 0.33	1.06 ± 0.079
ACATTTGTTGATACAACCATAAAATGATAATTACACCCATAAATTCATCATTATCACACCCAATTTAACTATAACGCTCTGATCATAGTCAGACCAACATTGCTACGACCCGTATTCGCACCGACAC	-2.36 ± 0.48	1.42 ± 0.023
ACATTTGTTGATACAACCATAAAATGATAATTACACCCATAAATTCATCATTATCACCCCCAATTTAACTATAACGCTCTGATCATAGTCAGACCAACATTGCTACGACCCGTATTCGCACCGACAC	-1.8 ± 0.25	1.45 ± 0.16
ACATTTGTTGATACAACCATAAAATGATAATTACACCCATAAATTCATTATTATCACACCCAATTTAACTATAACGCTCTGATCATAGTCAGACCAACATTGCTACGACCCGTATTCGCACCGACAC	-2.74 ± 0.49	0.845 ± 0.28
ACATTTGTTGATACAACCATAAAATGATAATTACACCCATAAATTCTATATTATCACACCCATAAATTGATATTGCCTCTGATCATAGTCAGACCAACATTGCTACGACCCGTATTCGCACCGACAC	-2.002 ± 0.013	-0.688 ± 0.11

Source: the supplement of paper PMC10201428
